Measured values published in US20030083469, “Allosteric control of nuclear hormone receptors” (The Salk Institute for Biological Studies, published 2003).

Molecular target: GAL4 DBD-RXRalpha LBD (Saccharomyces cerevisiae / Homo sapiens, UniProt P04386;P19793 P04386:1-147,P19793:203-462)
Assay: cell_activity; fold response to 100 nM LG69; 4 copies UASG TK-LUC, CV-1 cells
Settings: tags: GAL4 DBD (1-147) N-terminal fusion

Sequence of GAL4 DBD-RXRalpha LBD (P04386 1-147, chain 1 of 2): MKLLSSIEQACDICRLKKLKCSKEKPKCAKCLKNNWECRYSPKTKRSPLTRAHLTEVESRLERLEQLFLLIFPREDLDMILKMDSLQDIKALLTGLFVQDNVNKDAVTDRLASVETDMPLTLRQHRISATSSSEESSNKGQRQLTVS
Sequence of GAL4 DBD-RXRalpha LBD (P19793 203-462, chain 2 of 2): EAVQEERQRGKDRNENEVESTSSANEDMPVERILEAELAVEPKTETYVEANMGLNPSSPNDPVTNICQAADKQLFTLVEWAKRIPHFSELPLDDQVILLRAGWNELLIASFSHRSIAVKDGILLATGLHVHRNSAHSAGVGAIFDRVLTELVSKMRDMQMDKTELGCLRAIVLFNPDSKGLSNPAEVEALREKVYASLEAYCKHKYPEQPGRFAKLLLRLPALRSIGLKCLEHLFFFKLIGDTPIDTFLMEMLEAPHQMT

B1: UASG x4 (dsDNA)
DNA 1: CGACGGAGTACTGTCCTCCGAGCT
DNA 2: AGCTCGGAGGACAGTACTCCGTCG
Question: B1 was tested. Which activity did it give?
Answer: 69 fold
